The test system of assay [1] is Jurkat cells. The experiment in a line: Apoptosis by phosphatidylserine (PS) externalization in Jurkat cells. The class given is cell-based. To be noted: for inhibition of induced apoptosis by TRAIL-R1 blocking Ab: 30 min pre-incubation with Ab (5 μg ml^−1); for ability to induce apoptosis in Jurkat cells (in words): PS externalization, compared with wt TRAIL. The protocol: Cells were also exposed to HGS-ETR1 or HGSETR2 (1 μg ml^−1). C: Ramos or Jurkat cells were pre-incubated for 30 min either alone or with TRAIL-R1 blocking Ab or TRAIL-R2 neutralizing Ab (5 μg ml^−1). […] D: Ramos and Jurkat cells were exposed to wt TRAIL or TRAIL mutants as described above and processing of caspase-3 and -8 determined by Western blot analysis. The asterisk indicates a non-specific band. The lower panel of the blot for detection of the caspase-8 p18 subunit was exposed for twice as long as the upper panel. Apoptosis was assessed by phosphatidylserine externalization and results expressed as the Means±SEM of at least 3 separate determinations. […]
Apoptosis was quantified by phosphatidylserine (PS) externalization in the presence of propidium iodide as described (MacFarlane et al., 2002 ibid.). Samples for Western blot analysis were prepared and caspase processing detected as described (Inoue et al., 2004 ibid.; MacFarlane et al., 2005 ibid.).
(§1) Ramos and Jurkat T cells (clone E6-1) were cultured as described (MacFarlane et al, 2005 ibid.). The breast tumour cell line, MCF-7 (clone F43) was cultured as described previously (MacFarlane et al., 2000 J. Cell Biol. 148, 1239-1254). Cells were cultured for either 4 h (Ramos and Jurkat) or 6 h (MCF-7) with His-TRAIL (MacFarlane et al, 1997 J Biol Chem 272, 25417-25420), HGS-ETR1 or HGS-ETR2 (Human Genome Sciences), or a mutant form of His-TRAIL (MacFarlane et al, 2005 ibid.). Samples were analyzed for apoptosis, Western blotting, or TRAIL DISC activation as described (MacFarlane et al, 2005 ibid.; MacFarlane et al. 2002 Oncogene 21, 6809-6818). Mutants of His-TRAIL (residues 95-281) were generated using the Quik-Change site-directed mutagenesis kit (Stratagene, Calif.), confirmed by DNA sequencing, expressed in E. coli and purified as described (MacFarlane et al, 1997 ibid.). For siRNA targeting of TRAIL-R1/-R2, MCF-7 cells were seeded into six-well plates immediately prior to effectene-mediated RNAi transfection with either a negative control siRNA (30 nM, Ambion, #4611), or preannealed siRNA oligonucleotides for TRAIL-R1 or TRAIL-R2 (30 nM, Ambion), with the sequence and validity described (Ren et al, 2004 Mol. Biol. Cell vol 15 pp 5064-5074). After 40 h of transfection the cells were collected and total TRAIL-R1 or TRAIL-R2 levels assessed. Where indicated, RNAi transfected MCF-7 cells were either left untreated or exposed to wt-TRAIL and apoptosis assessed by the extent of Bax activation, determined using the conformation specific Bax MAb, clone 3 (Dewson et al, 2003 Oncogene vol 22 pp 2643-54).

For assay [2], the target named is TRAIL receptor 2 (TRAIL-R2) (Homo sapiens (Human)) (UniProt O14763).
Assay [3] deals with T1, MCF-7 cells (Homo sapiens).
T1 construct: the breast tumour cell line MCF-7 signals to apoptosis via TRAIL-R1; endogenous in cells; host or cells: MCF-7 (clone F43)
The experiment in a line: TRAIL DISC activation in MCF-7 cells. It counts as cell-based. As to conditions: FIG. 5B. The protocol:
as §1, with “For siRNA targeting of TRAIL-R1/-R2, MCF-7 cells were seeded into six-well plates immediately prior to effectene-mediated RNAi transfection with either a negative control siRNA (30 nM, Ambion, #4611), or preannealed siRNA oligonucleotides for TRAIL-R1 or TRAIL-R2 (30 nM, Ambion), with the sequence and validity described (Ren et al, 2004 Mol. Biol. Cell vol 15 pp 5064-5074).” left out
Apoptosis was quantified by measuring the processing of Caspase-8, Caspase-7 and PARP by Western blot analysis. […]

Assay [4] deals with TRAIL DISC in Jurkat cells. The assay can be described thus: DISC analysis with biotinylated TRAIL in Jurkat cells. It counts as cell-based. As to conditions: biotinylated ligand 500 ng ml^−1, 30 min. The procedure:
After exposure of the cells for 30 min, DISC complexes were isolated and analyzed for the indicated proteins by Western blotting. To provide an unstimulated receptor control (u/s), biotinylated wt or mutant TRAIL was added to lysate from untreated cells. C: Freshly isolated cells from patients with CLL were incubated for 16 h either alone or in the presence of depsipeptide (10 nM). […] The different symbols used indicate data from six individual patients and the solid line indicates the Mean.
Ramos or Jurkat cells (5×10^7 cells per treatment) were exposed to biotin-tagged recombinant His-TRAIL (biotinylated TRAIL) or one of its mutant forms (500 ng ml^−1) for 30 min and then DISC formation assessed as described previously (MacFarlane et al., 2002 ibid.).

“Also recorded” adds a separate entry of the source.

B1: HGS-ETR2 (antibody, INN chains, looked up, V domains shown)
VH: EVQLVQSGGGVERPGGSLRLSCAASGFTFDDYGMSWVRQAPGKGLEWVSGINWNGGSTGYADSVKGRVTISRDNAKNSLYLQMNSLRAEDTAVYYCAKILGAGRGWYFDLWGKGTTVTVSS
VL: SSELTQDPAVSVALGQTVRITCQGDSLRSYYASWYQQKPGQAPVLVIYGKNNRPSGIPDRFSGSSSGNTASLTITGAQAEDEADYYCNSRDSSGNHVVFGGGTKLTVL
B1: in assay [1], the “inhibition of induced apoptosis by TRAIL-R1 blocking Ab” value is on record as “not” and the “ability to induce apoptosis in Jurkat cells (in words)” value is “potently induced apoptosis”. This molecule also gave an apoptosis of primary MCL cells after depsipeptide (5 nM, 16 h) in assay [2] of 38.3%.

B2: TRAIL.R1-5: 6His TRAIL 95-281 with 193Ser, 199Val, 201Arg, 213Trp and 215Asp (protein)
chain: TSEETISTVQEKQQNISPLVRERGPQRVAAHITGTRGRSNTLSSPNSKNEKALGRKINSWESSRSGHSFLSNLHLRNGELVIHEKGFYYIYSQTYFRFSEEIKEVTRNDKQMVQYIYKWTDYPDPILLMKSARNSCWSKDAEYGLYSIYQGGIFELKENDRIFVSVTNEHLIDMDHEASFFGAFLVG
modifications: biotin (site not stated) in the DISC analysis only; not biotinylated in the apoptosis assays
notes: 6His TRAIL 95-281 with 193Ser, 199Val, 201Arg, 213Trp and 215Asp
As for B2, in assay [1], the “inhibition of induced apoptosis by TRAIL-R1 blocking Ab” value is given as “blocked” and the “ability to induce apoptosis in Jurkat cells (in words)” value is listed as “lost much of its activity; also recorded: low levels of apoptosis”. The “concentration-response of apoptosis compared with wt TRAIL” value in assay [1] (4 h, FIG. 1A) is recorded as “much less active than wt TRAIL”. In addition, in assay [1] (4 h exposure, 500 ng ml^−, Mean ± SEM of at least three determinations), the “% PS+ cells, Jurkat” value amounted to 20.0 ± 2.3%. For the same molecule, the “recruitment and processing of Caspase-8 at the DISC” value in assay [3] is “resulted in recruitment and processing Caspase-8 at the DISC”. In assay [4], the “DISC formation: receptor bound, FADD and caspase-8 recruitment” value is “bound small amounts of both TRAIL-R1 and -R2”.

Values taken from US20090325867A1, “RECEPTOR-SPECIFIC TUMOUR NECROSIS FACTOR-RELATED APOPTOSIS-INDUCING LIGAND (TRAIL) VARIANTS” (MEDICAL RESEARCH COUNCIL, priority 2005, published 2009).
